One data set deals with Met-tagged onconase. Description: In vivo catalytic activity of MetAPs co-expressed with Met-tagged onconase in E. coli BL21(DE3); N-terminus by Edman degradation. As to conditions: in vivo in E. coli. Type of data set: cell-based. The source says: Residues Tyr168, Met206 and Gln233 in the putative substrate-binding site of E. coli MetAP were mutated by site-directed mutagenesis based on the crystal structure and amino acid sequence alignment of MetAPs (Ben-Bassat et al., 1987; Lowther et al., 1999; Walker et al., 1999). For the expression of secretory ribonucleases, the ribonuclease gene was cloned and expressed as described previously (Huang et al., 1998).
Most of the co-expressed target protein, e.g., onconase or RC-RNase L1, existed in insoluble cell lysate. They were denatured, renatured and purified as described previously (Liao et al., 2003). The purified ribonucleases were stored in 20 mM sodium phosphate, pH 7.0, for pyroglutamate formation at the N-terminus. Alternatively, the ribonuclease secreted into culture medium through pe1B system was concentrated and purified to electrophoretical homogeneity at a yield of 1˜5 mg per 1 liter of culture (Huang et al., 1998).

Another data set has as its system synthetic oligopeptides. Type of data set: biochemical. As to conditions: 4 mM oligopeptide, pH 7.5, 37° C. How it is done:
The oligopeptide substrates used in this experiment were synthesized on the 432A Synergy peptide synthesizer (Applied Biosystems, Foster, Calif., USA). The enzymatic activity of purified MetAP was assayed as described by Ben-Bassat et al., 1987. Briefly, the diluted MetAP enzyme in 10 μl was added to 90 μl of the substrate solution containing 4 mM oligopeptide, 0.1 M potassium phosphate buffer, pH 7.5 and 0.2 mM CoCl2, incubated at 37° C. for 10 min and stopped in boiling water for 2 min. After addition of 0.9 ml of color development mixture containing 0.2 mg of L-amino acid oxidase, 0.03 mg of horseradish peroxidase and 0.2 mg of o-dianisidine in 0.1 M Tris-HCl, pH 7.4, the mixtures were incubated for 10 min at 37° C., and the optical density at 440 nm was recorded. One unit of activity is defined as 1 μmol of amino acids produced per min under the assay conditions and the pure Met was used as standard. The N-terminal residues of the MetAP-treated oligopeptide were further verified by Edman degradation.

Where two headings read alike, the source gives them in different places.

B1: MetAP-Q233G: E. coli MetAP with Gln233 replaced by Gly (protein, UniProt P0AE18 2-264, looked up, variant Q233G)
Methionine aminopeptidase: AISIKTPEDIEKMRVAGRLAAEVLEMIEPYVKPGVSTGELDRICNDYIVNEQHAVSACLGYHGYPKSVCISINEVVCHGIPDDAKLLKDGDIVNIDVTVIKDGFHGDTSKMFIVGKPTIMGERLCRITQESLYLALRMVKPGINLREIGAAIQKFVEAEGFSVVREYCGHGIGRGFHEEPQVLHYDSRETNVVLKPGMTFTIEPMVNAGKKEIRTMKDGWTVKTKDRSLSAGYEHTIVVTDNGCEILTLRKDDTIPAIISHDE
For B1, the “Catalytic activity (%): removal of N-terminal Met” value (from here on “Catalytic activity (%): removal”) in the data set on Met-tagged onconase (substrate MQD-Onc) was 74%.

B2: MetAP-Q233T: E. coli MetAP with Gln233 replaced by Thr (protein, UniProt P0AE18 2-264, looked up, variant Q233T)
Methionine aminopeptidase: AISIKTPEDIEKMRVAGRLAAEVLEMIEPYVKPGVSTGELDRICNDYIVNEQHAVSACLGYHGYPKSVCISINEVVCHGIPDDAKLLKDGDIVNIDVTVIKDGFHGDTSKMFIVGKPTIMGERLCRITQESLYLALRMVKPGINLREIGAAIQKFVEAEGFSVVREYCGHGIGRGFHEEPQVLHYDSRETNVVLKPGMTFTIEPMVNAGKKEIRTMKDGWTVKTKDRSLSATYEHTIVVTDNGCEILTLRKDDTIPAIISHDE
As to B2, in the data set on Met-tagged onconase (substrate MQD-Onc), the “Catalytic activity (%): removal” value turned out to be 88%.

B3: MetAP-M206G: E. coli MetAP with Met206 replaced by Gly (protein, UniProt P0AE18 2-264, looked up, variant M206G)
Methionine aminopeptidase: AISIKTPEDIEKMRVAGRLAAEVLEMIEPYVKPGVSTGELDRICNDYIVNEQHAVSACLGYHGYPKSVCISINEVVCHGIPDDAKLLKDGDIVNIDVTVIKDGFHGDTSKMFIVGKPTIMGERLCRITQESLYLALRMVKPGINLREIGAAIQKFVEAEGFSVVREYCGHGIGRGFHEEPQVLHYDSRETNVVLKPGMTFTIEPGVNAGKKEIRTMKDGWTVKTKDRSLSAQYEHTIVVTDNGCEILTLRKDDTIPAIISHDE
As for B3, the “Catalytic activity (%): removal” value with Met-tagged onconase (substrate MQD-Onc) was found to be 85%.

B4: MetAP-M206V: E. coli MetAP with Met206 replaced by Val (protein, UniProt P0AE18 2-264, looked up, variant M206V)
Methionine aminopeptidase: AISIKTPEDIEKMRVAGRLAAEVLEMIEPYVKPGVSTGELDRICNDYIVNEQHAVSACLGYHGYPKSVCISINEVVCHGIPDDAKLLKDGDIVNIDVTVIKDGFHGDTSKMFIVGKPTIMGERLCRITQESLYLALRMVKPGINLREIGAAIQKFVEAEGFSVVREYCGHGIGRGFHEEPQVLHYDSRETNVVLKPGMTFTIEPVVNAGKKEIRTMKDGWTVKTKDRSLSAQYEHTIVVTDNGCEILTLRKDDTIPAIISHDE
B4: in the data set on Met-tagged onconase (substrate MQD-Onc), the “Catalytic activity (%): removal” value was determined as 61%.

B5: MetAP-M206T: E. coli MetAP with Met206 replaced by Thr (protein, UniProt P0AE18 2-264, looked up, variant M206T)
Methionine aminopeptidase: AISIKTPEDIEKMRVAGRLAAEVLEMIEPYVKPGVSTGELDRICNDYIVNEQHAVSACLGYHGYPKSVCISINEVVCHGIPDDAKLLKDGDIVNIDVTVIKDGFHGDTSKMFIVGKPTIMGERLCRITQESLYLALRMVKPGINLREIGAAIQKFVEAEGFSVVREYCGHGIGRGFHEEPQVLHYDSRETNVVLKPGMTFTIEPTVNAGKKEIRTMKDGWTVKTKDRSLSAQYEHTIVVTDNGCEILTLRKDDTIPAIISHDE
On to B5, for which, in the data set with Met-tagged onconase (substrate MQD-Onc), the “Catalytic activity (%): removal” value was 86%.

B6: MetAP-*TT (protein)
chain: AISIKTPEDIEKMRVAGRLAAEVLEMIEPYVKPGVSTGELDRICNDYIVNEQHAVSACLGYHGYPKSVCISINEVVCHGIPDDAKLLKDGDIVNIDVTVIKDGFHGDTSKMFIVGKPTIMGERLCRITQESLYLALRMVKPGINLREIGAAIQKFVEAEGFSVVREYCGHGIGRGFHEEPQVLHYDSRETNVVLKPGMTFTIEPTVNAGKKEIRTMKDGWTVKTKDRSLSATYEHTIVVTDNGCEILTLRKDDTIPAIISHDE
On to B6, for which the “Catalytic activity (%): removal” value in the data set on Met-tagged onconase (substrate MQD-Onc) is 93%. For the same molecule, the “Specific activity (unit/mg)” value in the data set with synthetic oligopeptides (substrate MADY (SEQ ID NO:7)) was found to be 0.38 ± 0.03 unit/mg; with synthetic oligopeptides (substrate MADYLT (SEQ ID NO:8)), 0.12 ± 0.01 unit/mg; with synthetic oligopeptides (substrate MQDYLT (SEQ ID NO:9)) it was 0.13 ± 0.01 unit/mg; with synthetic oligopeptides (substrate […] (SEQ ID NO:5)), 1.00 ± 0.08 unit/mg; in the data set on synthetic oligopeptides (substrate […] (SEQ ID NO:6)), 0.25 ± 0.01 unit/mg.

B7: MetAP-*GG (protein)
chain: AISIKTPEDIEKMRVAGRLAAEVLEMIEPYVKPGVSTGELDRICNDYIVNEQHAVSACLGYHGYPKSVCISINEVVCHGIPDDAKLLKDGDIVNIDVTVIKDGFHGDTSKMFIVGKPTIMGERLCRITQESLYLALRMVKPGINLREIGAAIQKFVEAEGFSVVREYCGHGIGRGFHEEPQVLHYDSRETNVVLKPGMTFTIEPGVNAGKKEIRTMKDGWTVKTKDRSLSAGYEHTIVVTDNGCEILTLRKDDTIPAIISHDE
For B7, the “Catalytic activity (%): removal” value turned out to be 5% with Met-tagged onconase (substrate MID-Onc), 18% in the data set on Met-tagged onconase (substrate MLD-Onc) and 96% in the data set with Met-tagged onconase (substrate MQD-Onc). Further, the “Specific activity (unit/mg)” value in the data set on synthetic oligopeptides (substrate MADY (SEQ ID NO:7)) is on record as 0.51 ± 0.01 unit/mg; in the data set on synthetic oligopeptides (substrate MADYLT (SEQ ID NO:8)) it was 0.29 ± 0.01 unit/mg; with synthetic oligopeptides (substrate MQDYLT (SEQ ID NO:9)), 0.29 ± 0.02 unit/mg; in the data set on synthetic oligopeptides (substrate […] (SEQ ID NO:5)), 3.28 ± 0.04 unit/mg; with synthetic oligopeptides (substrate […] (SEQ ID NO:6)), 0.50 ± 0.02 unit/mg.

The values are drawn from US7109015B2, “Removal of N-terminal methionine from proteins by engineered methionine aminopeptidase” (Academia Sinica, priority 2004, dated 2006).
